One assay has as its target T1, 46-60aa.
T1 construct: also called alpha-synuclein peptide 46-60
T1 peptide: {Biotin-Ahx}-EGVVHGVATVAEKTK
Nature of the assay: indirect ELISA on biotinylated 15-mer peptide. As to the method: (§1) Serum-free supernatants were harvested from stable hybridomas. The supernatants containing antibodies of interest were then screened by an indirect ELISA assay to determine epitopes. Epitopes were first determined using a library of 15-mer peptides covering the entire sequence of human alpha-synuclein protein, spanning amino acids (aa) 1-140 with 9aa offset and […] overlap. […] Briefly, streptavidin-coated ELISA plates were blocked overnight at 4° C. […] Plates were washed with PBS/0.05% Tween®20 and then incubated with the hybridoma supernatants at 1/100 dilution for 1 hour at 25° C.
Background: ELISA stands for enzyme-linked immunosorbent assay.

Another assay has as its target T2, 64-78aa.
T2 construct: also called alpha-synuclein peptide 64-78
T2 peptide: {Biotin-Ahx}-TNVGGAVVTGVTAVA
The assay is described as follows: indirect ELISA on biotinylated 15-mer peptide. As to the method:
as §1

The target in the next assay is T3, 82-96aa.
T3 construct: also called alpha-synuclein peptide 82-96
T3 peptide: {Biotin-Ahx}-VEGAGSIAAATGFVK
The assay is described as follows: indirect ELISA on biotinylated 15-mer peptide. As to the method: as §1

The target in another assay is T4, 118-132aa.
T4 peptide: {Biotin-Ahx}-VDPDNEAYEMPSEEG
The assay is described as follows: indirect ELISA on biotinylated 15-mer peptide. As to the method: as §1

A further assay concerns the target T5, 127-140aa.
T5 peptide: {Biotin-Ahx}-MPSEEGYQDYEPEA
The assay is described as follows: indirect ELISA on biotinylated 15-mer peptide, supernatant 1/100. As to the method: as §1

For another assay, the target named is alpha-synuclein seeds (UniProt P37840 1-140). Nature of the assay: cell-based or functional assay.
The target of a further assay is T6, 1-14aa.
T6 construct: also called alpha-synuclein peptide 1-14
T6 peptide: MDVFMKGLSKAKEG-biotin
The assay is described as follows: indirect ELISA on biotinylated 15-mer peptide. As to the method: as §1

A further assay concerns the target T7, 91-105aa.
T7 peptide: {Biotin-Ahx}-ATGFVKKDQLGKNEE
The assay is described as follows: indirect ELISA on biotinylated 15-mer peptide. As to the method:
as §1

In another assay the target is T8, 10-24aa.
T8 construct: also called alpha-synuclein peptide 10-24
T8 peptide: {Biotin-Ahx}-KAKEGVVAAAEKTKQ
The assay is described as follows: indirect ELISA on biotinylated 15-mer peptide. As to the method:
as §1

A further assay addresses T9, 1-15aa.
T9 construct: also called alpha-synuclein peptide 1-15
T9 peptide: {Biotin-Ahx}-MDVFMKGLSKAKEGV
Nature of the assay: indirect ELISA on biotinylated 15-mer peptide. As to the method: as §1

Changes are numbered by the printed parent chain. Where no end group is shown, it is not given here. The star is where a group is joined. Biotin = O=C1N[C@H]2[C@H](CS[C@H]2CCCCC(=O)*)N1; Ahx = NCCCCCC(=O)O

B1: ACI-7067-1113D10-Ab1 (antibody, V domains shown)
VH: EVQLVESGGGLVQPKGSLKLSCAASGFTFNTYALHWVRQAPGKGLEWVARIRSKSSNYATYYADSVKDRFTISRDDSQSMLYLQMNNLKTEDTGMYYCVRGGVSPFDYWGQGTTLTVSS
VL: QIVLTQSPAIMSASPGEKVTMTCSASSSVSYMHWYQQKSGTSPKRWIYDTSKLASGVPARFSGSGSGTSYSLTISSMEAEDSATYYCQQWSNNPPTFGGGTKLEIK
notes: mouse hybridoma mAb; VH/VL only; also called 1113D10E3D5
With B1, the binding result is “no binding (tested: supernatant 1/100)” with 46-60aa; “no binding (tested: supernatant 1/100)” with 64-78aa; “no binding (tested: supernatant 1/100)” with 82-96aa; “no binding (tested: supernatant 1/100)” with 118-132aa; “binds” with 127-140aa. Besides, the “aggregation half-time (τ1/2) of seeded alpha-synuclein aggregation, ThT; no antibody 26.9 hours” value with alpha-synuclein seeds came out at 30.1 h.

B2: ACI-7067-1106A8-Ab2 (antibody, V domains shown)
VH: EVQLVESGGGLVQPKGSLKLSCAASGFTFNTYAMHWVRQAPGKGLEWVARIRSKGSNYATNYADSVKDRFTISRDDSQSMLYLQMNNLKTEDTAMYYCVRGHGSSYFSYWGQGTLVTVSA
VL: B1 VL with K52N, S82A, S91N, N92S, N93H, G99A, I105L
notes: mouse hybridoma mAb; VH/VL only; also called 1106A8H3
As for B2, the binding result with 46-60aa is “no binding (tested: supernatant 1/100)”; with 64-78aa, “no binding (tested: supernatant 1/100)”; with 82-96aa, “no binding (tested: supernatant 1/100)”; with 118-132aa it was “no binding (tested: supernatant 1/100)”; with 127-140aa, “binds”.

B3: ACI-7079-2605B3-Ab2 (antibody, V domains shown)
VH: EVQLVESGGGLVQPKGSLKLSCAASGFIFKTYAMHWVRQAPGKGLEWVARIRSKGGNYATYFADSVKDRFTISRDDSQNMLYLQVNNLKIEDTAMYFCVRGGNYSWFAYWGQGTLVTVSA
VL: B1 VL with S30T, K52Q, Y70H, A79T, S82A, S91T, N92R, E104A
notes: mouse hybridoma mAb; VH/VL only; also called 2605B3D1
Take B3: the binding result with 46-60aa, with 1-14aa, in the assay with 91-105aa, with 10-24aa, with 1-15aa and in the assay with 82-96aa was “no binding (tested: supernatant 1/100)” throughout. The binding result is reported as “no binding (tested: supernatant 1/100)” in the assay with 118-132aa and “binds” with 127-140aa.

B4: ACI-7067-1108B11-Ab2 (antibody, V domains shown)
VH: B2 VH
VL: QIVLTQSPAIMSASPGERITMTCSANSSVTYMHWYQQKSGTSPKRWIYDTSNLASGVPARFSGSGSGTSYSLTISSMEAEDAATYYCQQWKSHPPTFGAGTKLELK
notes: mouse hybridoma mAb; VH/VL only; also called 1108B11D3
B4: the binding result with 46-60aa is “no binding (tested: supernatant 1/100)”; in the assay with 64-78aa, “no binding (tested: supernatant 1/100)”; with 82-96aa, “no binding (tested: supernatant 1/100)”; in the assay with 118-132aa, “no binding (tested: supernatant 1/100)”; in the assay with 127-140aa, “binds”. Also, the “aggregation half-time (τ1/2) of seeded alpha-synuclein aggregation, ThT; no antibody 26.9 hours” value with alpha-synuclein seeds came out at 33.3 h.

These data come from patent publication US20250340623A1 (AC IMMUNE, published 2025).
